# Experimental data taken from article PMC11832919 (Nature Communications, 2025).
# Biological target: StrepTag II-IsdB (Staphylococcus aureus iron-regulated surface determinant protein B) (S. aureus, UniProt Q2FZF0 41-613)
# Test: SAXS
# Sequence of StrepTag II-IsdB (Staphylococcus aureus iron-regulated surface determinant protein B) (Q2FZF0 41-613): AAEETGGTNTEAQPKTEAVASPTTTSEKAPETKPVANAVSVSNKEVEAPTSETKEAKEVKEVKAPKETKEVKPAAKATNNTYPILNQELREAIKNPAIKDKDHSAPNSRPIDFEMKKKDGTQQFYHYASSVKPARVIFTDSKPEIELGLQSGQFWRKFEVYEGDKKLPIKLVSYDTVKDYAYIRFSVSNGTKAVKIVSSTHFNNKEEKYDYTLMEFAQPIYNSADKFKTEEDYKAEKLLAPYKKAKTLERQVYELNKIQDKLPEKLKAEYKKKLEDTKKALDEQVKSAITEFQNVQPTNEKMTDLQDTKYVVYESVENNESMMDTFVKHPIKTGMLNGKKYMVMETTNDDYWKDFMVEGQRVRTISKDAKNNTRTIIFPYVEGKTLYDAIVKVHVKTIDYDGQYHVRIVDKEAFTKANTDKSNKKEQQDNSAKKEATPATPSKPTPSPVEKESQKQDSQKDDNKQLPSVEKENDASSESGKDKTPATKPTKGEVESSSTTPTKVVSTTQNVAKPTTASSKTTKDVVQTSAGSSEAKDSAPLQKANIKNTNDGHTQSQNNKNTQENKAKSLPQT
binder,measurement,value
human methemoglobin (coordinating oxidized heme) (complex) chain 1: not shown chain 2: not shown,Kd,1680 ± 620 nM
